± gives the half width of the 95% confidence interval.
Assay: folding stability dG unfold from chymotrypsin proteolysis; higher = more stable
How it was run: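 Unfolding free energy was derived, per protease or combined, against a sequence-predicted unfolded-state K50 and a shared folded-state K50, starting from K50 inferred by Bayesian fitting of sequencing counts. Digestion with trypsin and chymotrypsin was carried out on designed mini-proteins under 80 residues without cysteine in a PA-tagged cDNA display construct. Only designs with AlphaFold2 dimer inter-PAE above 15 were kept.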

Sequence | folding stability dG unfold
SAGGEVKPGDKVKVRLRLRVRLEDGEEVEVELEFVEVEVVPLSEEEKEKLEELKKKKPEVDPKNKELLSAGG [r13_330_TrROS_Hall] | 2.24 ± 0.11 kcal/mol
SAGGELKLLFNFPSKEEAEEFAEALKKAYPNFEVEVEYDPETGLFYLTLKPKEIPPLSPEELEKLLESAGGS [r16_674_TrMRF] | 4.87 ± 0.056 kcal/mol
SAGGSAGGSGDSITLPVSVPKGSELVIENLSTNKKVIIPDDGPVTITIDKGKDGLKISAEVEKSAGGSAGGS [r12_919_TrMRF] | 0.106 ± 0.053 kcal/mol
SAGGSAGGSAKEVIIEIKVPPNMTEDEIKELLKKKFKGKKVEIKIEKKKNKNGTLIYKVEVKSAGGSAGGSA [r18_360_TrROS_Hall] | 3.13 ± 0.12 kcal/mol
SAGGSAGGSAGGKIYKKKNGTYKIIIYDKKTKKVYEIEIPVSKEDKPKILKEAKELAKKSAGGSAGGSAGGS [r10_379_TrROS_Hall] | 1.49 ± 0.096 kcal/mol
SAGGSAGGSAGGEPDKVSIHINITEEFIEQIKNGKPIPPWARPAIKYAQKKGKKVEIVWSAGGSAGGSAGGS [r10_890_TrROS] | -0.532 ± 0.53 kcal/mol
SAGGSAGGKLENLPENVTEVRIEKNENGEYTIYVRNKETNEYVKLKVEKKDGEWKIVEKEVFPKSAGGSAGG [r6_937_TrROS_Hall] | 3.02 ± 0.047 kcal/mol
SAGGSAGGSAKEKYILLKVKPGQKVEIEYENGEKKEVEVLEDGYLLIKVKEKNAKIKIKIKSAGGSAGGSAG [r3_334_TrROS_Hall] | 2.82 ± 0.051 kcal/mol
SAGGSAGGSAGPKILSIEEYDPENGYITVIAELTGKPVRMKVKFIPGKKEIKIIEIEPLDSAGGSAGGSAGG [r11_1066_TrMRF] | 2.49 ± 0.036 kcal/mol
SAGGKYKIEIVDVEVKEDGTVTIKLKLYNENGELIAEIEIELKGVKEVTLELEIGGKKIKITLKVEKPSAGG [r13_427_TrROS_Hall] | 5.3 ± 0.17 kcal/mol
SAGGSAEKPVRTLEITVTVPPGQPTPEELARALAEELGVEVTRVEVVRVERNEDGELTVTVRVEVKSAGGSA [r15_654_TrROS_Hall] | 2.5 ± 0.14 kcal/mol
SAGGSAGGSAPMVLLLEFDSPEEATEAAKKIAEEFEKLGAKVEVEIFKPPEDKYLVLIRIDSAGGSAGGSAG [r3_211_TrMRF] | 3.91 ± 0.12 kcal/mol
SAGGSAGGSAGGMKKKKLKEGVEIEFFREGDYLYVTTKIPETGKEETKKVKKVPKDIPLSAGGSAGGSAGGS [r10_240_JUSTAS] | 0.298 ± 0.14 kcal/mol
SAGGSAGGSAGDEPNDVVKIDFTFFFEDGYMIEMDIVIVPNGNIAIEIEIEPIKPPDEGDSAGGSAGGSAGG [r11_998_TrROS] | 1.9 ± 0.13 kcal/mol
SAGGGMMVLKVSQPVLLLSTVTLPNGFPKFLPVSPLSLETTVTFTGSDQDAEELAAELKAQGATVTEESAGG [r13_452_JUSTAS] | 0.719 ± 0.12 kcal/mol
SAGSKVPVTATATFSDKAELEKTVADIKAKTGYDIEVTYDPNSNSYTITVNTTDEVVKMLKEKGFKLESAGG [r19_306_JUSTAS] | 1.94 ± 0.13 kcal/mol

Sequence | folding stability dG unfold
SAGGMKIEIELEDGYLRVKIYDKDGKLIEEIEIKIEKVEPPPEVEVELSPEELAKKLGVEIEIKEKESAGGS [r16_778_TrROS_Hall] | 2.38 ± 0.2 kcal/mol
SAGGSAGGSAGMKEGEIVEVTVPIPENGEEIKVKVVAPPSLTEEEARALAEEKAKEIYEKSAGGSAGGSAGG [r11_355_JUSTAS] | 0.99 ± 0.04 kcal/mol
SAGGSAGGSAGGSWKIDKFTSIERTDGGYVIRIRMENPDGPPMKQTFYFPPGDDELANISAGGSAGGSAGGS [r4_253_TrROS] | 0.242 ± 0.3 kcal/mol
SAGGSAGGSAGGMSFPVSSVEYRKDPNSDTPLVFITLPDGTVIIERLDTGTSSVVPVSQLSAGGSAGGSAGG [r11_922_JUSTAS] | 1.3 ± 0.15 kcal/mol
SAGGSAGGSGMAVSVSVTPVRLPDGSVRLVISFSSGSTVVLDLPESEWTPEQVEALVAELVSASAGGSAGGS [r12_218_JUSTAS] | 3.9 ± 0.048 kcal/mol
SAGGSAMSVDPVGERTTITILYKDKPVTVPTGPLEEVEREVAAVLEEIEAKTGRKISPDTEVSFVPSAGGSA [r15_496_JUSTAS] | 0.595 ± 0.17 kcal/mol
SAGGSAGGSAGGAELLPSDVLKFTLTIQPDLKGSPPIIVEVTISVPPEVLEKPEIEVSLSAGGSAGGSAGGS [r10_672_JUSTAS] | 2.87 ± 0.093 kcal/mol
SARIRIMVPPDFIMVRTPKGKMRMVDDPEEIEEIIKDILPVPIEIEPLPPNSPKFQKMMEMMMREQNGPSAG [r14_235_TrROS] | 0.158 ± 0.23 kcal/mol
SAGSMRTRKYEVERGEDEIVFPLPDGKVLRLPPDVGATVEVEYDPDGPPVRVTVRFPDGADYVLPYEELSAG [r5_45_JUSTAS] | 1.11 ± 0.15 kcal/mol
SAGGMPIYARIVLYPPETGKFSELEIEFPEFESPDEVVEAAKEIAEKLGGPIARIEIYDPKTGKPFPDSAGG [r13_771_TrMRF] | 0.281 ± 0.083 kcal/mol
SAGGSAGGSAGGSPKTILLEVNGRLVLVTVKDGKVEIRDLENPNKTYTFPPGAKILIVDSAGGSAGGSAGGS [r4_321_TrROS_Hall] | 1.91 ± 0.035 kcal/mol
SAKKPKKVIEVTIVLPLEELKNMSLEELLKKILEELGIKEGEKVKIEVKLEEVEIDGKKYLVITVRIELSAG [r14_334_TrROS_Hall] | 2.69 ± 0.11 kcal/mol
SAGGSAMPADEVVEVREITDPATGKKVTVVRNKETGRYFVRVENPDGETEVFEVPGMTAEELEELASAGGSA [r15_295_TrROS_Hall] | 2.6 ± 0.051 kcal/mol
SAGGSAKPKIKITITRNEDGSLLVRITLPDGREVELSVDDIKALEDAGINLDDVEITEVEVSPEDLSAGGSA [r15_955_TrROS_Hall] | 2.71 ± 0.067 kcal/mol
SAGGMANPEDFKVVESLEFRDPDNGKPFTIEIAKPPDNNVPIMIWHNGSMYMFVIDGDKIEVFPIKNSAGGS [r16_711_TrROS] | 1.88 ± 0.1 kcal/mol

From the supplement of paper PMC12764529
